From US20070048219A1 come the findings set out here.

This assay has as its target IL-8 receptors on human neutrophils. In words: unlabeled IL-8 displaces 125I-IL-8 from IL-8 receptors on human neutrophils; value in the legend box without a column head, IC50.

With “recombinant human IL-8, (ser-IL-8)72 (from UniProt P10145 28-99) (ligand)”, the concentration for half-maximal inhibition (IC50) (commonly the concentration needed to halve the response being measured) came to 0.078 nM. This lies in the picomolar range.
